Assay results taken from PMC6484116, “The NifZ accessory protein has an equivalent function in maturation of both nitrogenase MoFe protein P-clusters” (The Journal of Biological Chemistry, 2019).
Values joined by “and” are separate entries in the source; they are usually repeats but may differ in a detail not shown here. Equal entries are not always repeated.

Columns and labels:
[1] = target: T1, MoFe protein^StrΔZ (Strep-tagged nitrogenase MoFe protein produced in a nifZ-deletion strain) (Azotobacter vinelandii, UniProt P07328 1-492; P07329 1-523); assay: affinity purification with mass spectrometry; MoFe protein^StrΔZ isolated on Strep-Tactin (STAC) from cell extract, then Q-Sepharose anion exchange (200-500 mM NaCl gradient); fractions on SDS-PAGE, Coomassie, densitometry; bands identified by MALDI; also after incubating the extract 0-240 min with 36 mM Na2S2O4 at 30 °C (NifW slowly dissociates); settings: partners not purified
T1 construct: nitrogenase MoFe protein α-subunit (NifD), Azotobacter vinelandii; Strep-encoding tag incorporated into the N-terminal coding region; nitrogenase MoFe protein β-subunit (NifK), Azotobacter vinelandii; A mixed population: αβ-units hold either an immature P-cluster without FeMo-cofactor or a mature P-cluster with FeMo-cofactor; also called MoFe^StrΔZ; α2β2 heterotetramer; source: A. vinelandii …
T1 sequence (looked up) 1: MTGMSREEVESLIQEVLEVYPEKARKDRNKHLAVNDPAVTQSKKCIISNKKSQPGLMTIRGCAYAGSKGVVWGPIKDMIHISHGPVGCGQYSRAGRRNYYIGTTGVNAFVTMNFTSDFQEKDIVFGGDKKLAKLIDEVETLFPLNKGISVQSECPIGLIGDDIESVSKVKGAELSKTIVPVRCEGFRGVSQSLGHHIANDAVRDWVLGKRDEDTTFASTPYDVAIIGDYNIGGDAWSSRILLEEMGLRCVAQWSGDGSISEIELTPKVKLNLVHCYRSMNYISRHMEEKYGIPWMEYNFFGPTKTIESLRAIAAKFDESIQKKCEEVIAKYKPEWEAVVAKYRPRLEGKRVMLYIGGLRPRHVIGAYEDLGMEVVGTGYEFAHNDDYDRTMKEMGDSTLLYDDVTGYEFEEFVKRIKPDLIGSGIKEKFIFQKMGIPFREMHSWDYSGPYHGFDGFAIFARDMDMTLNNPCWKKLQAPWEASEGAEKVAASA
T1 sequence (looked up) 2: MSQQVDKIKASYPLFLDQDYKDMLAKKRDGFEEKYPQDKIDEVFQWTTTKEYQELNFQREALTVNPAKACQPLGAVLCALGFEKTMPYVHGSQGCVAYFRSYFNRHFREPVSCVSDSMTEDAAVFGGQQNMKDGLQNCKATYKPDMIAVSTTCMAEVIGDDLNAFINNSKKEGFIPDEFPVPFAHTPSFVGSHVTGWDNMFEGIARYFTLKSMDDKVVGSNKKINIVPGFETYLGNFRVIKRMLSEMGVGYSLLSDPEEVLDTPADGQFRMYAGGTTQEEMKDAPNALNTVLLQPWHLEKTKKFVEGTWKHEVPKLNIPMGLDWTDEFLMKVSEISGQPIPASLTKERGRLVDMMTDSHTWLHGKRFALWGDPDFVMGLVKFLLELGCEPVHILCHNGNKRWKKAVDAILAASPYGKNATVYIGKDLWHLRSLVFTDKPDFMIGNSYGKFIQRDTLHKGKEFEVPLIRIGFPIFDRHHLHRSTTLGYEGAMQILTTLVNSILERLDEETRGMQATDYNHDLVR

[2] = target: T2, MoFe protein^HisΔZ (His-tagged nitrogenase MoFe protein produced in a nifZ-deletion strain) (Azotobacter vinelandii, UniProt P07328 1-492; P07329 1-523); assay: affinity purification with mass spectrometry; MoFe protein^HisΔZ isolated by IMAC from extract of cells derepressed 4 h, then Q-Sepharose anion exchange (200-500 mM NaCl gradient); fractions on SDS-PAGE, Coomassie, densitometry; bands identified by MALDI; settings: partners not purified
T2 construct: nitrogenase MoFe protein α-subunit (NifD), Azotobacter vinelandii; polyhistidine-encoding tag incorporated into the N-terminal coding region; nitrogenase MoFe protein β-subunit (NifK), Azotobacter vinelandii; A mixed population: αβ-units hold either an immature P-cluster without FeMo-cofactor or a mature P-cluster with FeMo-cofactor; also called MoFe^His protein; α2β2 heterotetramer; source: A. …
T2 sequence (looked up) 1: T1 sequence (looked up) 1
T2 sequence (looked up) 2: T1 sequence (looked up) 2

B1: NifW (accessory protein, endogenous) (natural protein, UniProt P14888 1-115, looked up)
chain: MTVQPFSPDSDLTLDEAMDELVSAEDFLEFFGVPFDQDVVHVNRLHIMQRYHDYLSKAGDLDEHDDQARYAVFQKLLARAYLDFVESDALTEKVFKVFRMHEPQKTFVSIDQLLS
notes: NifW, Azotobacter vinelandii; also called NifW assembly factor; source: endogenous, A. vinelandii DJ1182 or DJ2111 cell extract; co-purified with MoFe protein
For B1, the “stoichiometry N” value [1] was ~1 NifW per α2β2 heterotetramer and ~2 NifW per α2β2 heterotetramer and the “stoichiometry N” value [2] was ~1 NifW per α2β2 heterotetramer and 2 NifW per α2β2 heterotetramer.
